Source: patent US10512676B2, “Formulations comprising recombinant acid alpha-glucosidase” (Amicus Therapeutics, Inc., priority 2016, dated 2019)

Tests used:
[1] = system: Gaa knockout mice; assay: Glycogen reduction in Gaa-knockout mice; type: in vivo, mouse
Source text: Animals were given two IV bolus administrations (every other week); tissues were harvested two weeks after the last dose and analyzed for acid α-glucosidase activity and glycogen content.
Tissues were collected 14 days after last enzyme dose for glycogen measurement.

[2] = Plasma total GAA protein pharmacokinetics, phase 1/2 study in adults with Pompe disease; type: in vivo, human; conditions: for Total GAA Protein AUC0-t / Total GAA Protein AUC0-∞ / Total GAA Protein Cmax: n = 8, geometric mean
[3] = Apparent plasma half-life in vivo
[4] = system: Pompe fibroblasts and skeletal muscle myoblasts; assay: Internalization by Pompe fibroblasts and skeletal muscle myoblasts; type: cell-based
[5] = system: whole human blood; assay: Hemolysis in whole human blood; type: cell-based; conditions: for percent hemolysis / OD540 With Blood / % Hemolysis: 1 hour at 37° C.; for % Hemolysis: water = 100%
Experimental: A series of dilutions of blood (1:2, 1:3, 1:4, 1:5, and 1:10) from a human donor were prepared in saline. […] Four types of samples were tested: the test article, placebo, positive control and negative control. […] The placebo was the same as the test article except there was no ATB200 rhGAA.
Samples were incubated without agitation for 1 hour at 37° C. After incubation, the tubes were centrifuged for 10 minutes at approximately 100× g at room temperature. The amount of hemoglobin in the supernatant of each sample was analyzed spectrophotometrically at 540 nm.
The percent hemolysis for the test article was determined by the formula: […]
The percent hemolysis of water plus blood is 100%. Saline was the negative control. Hemolysis less than or equal to 10% was considered insignificant. The percent hemolysis was calculated for each concentration of the test article and for the placebo.

[6] = Flocculation in human serum; design: key to Serum Macro (precipitation/coagulation score) / Serum Micro (precipitation/coagulation score) / Serum Pellet (score): 0=negative; 1=very slight precipitation or pellet; 2=minimal precipitation or pellet; 3=moderate precipitation or pellet; 4=significant precipitation or pellet
Experimental: (§1) Test article dosing solutions (3 concentrations) and the placebo (3 concentrations) were mixed with equal volumes of human plasma and serum from a donor. […] The placebo was the same as the test article except there was no ATB200 rhGAA.
(§2) One ml of each dose of test article or placebo, was mixed with an equal volume of plasma, serum and saline. Samples were incubated for 30 minutes at room temperature. After incubation the tubes were examined macroscopically and microscopically for precipitation or coagulation. An aliquot from each tube was centrifuged at 14,000 rpm in a microcentrifuge for 10 minutes. Each tube was examined for the presence or absence of a pellet. Precipitation/coagulation and pellets were scored as follows: • 0=negative • 1=very slight precipitation or pellet • 2=minimal precipitation or pellet • 3=moderate precipitation or pellet • 4=significant precipitation or pellet

[7] = Flocculation study: test article mixed with equal volume of saline (macro, micro, pellet); design: key: 0=negative; 1=very slight precipitation or pellet; 2=minimal precipitation or pellet; 3=moderate precipitation or pellet; 4=significant precipitation or pellet
Experimental: as §1, §2

[8] = system: Gaa KO mice; assay: Muscle function in Gaa-knockout mice, 12 biweekly administrations (grip strength, wire hang); type: in vivo, mouse; conditions: 6 months, with or without miglustat
Source text: In FIG. 18A, * indicates statistically significant compared to Lumizyme® alone (p<0.05, 2-sided t-test). In FIGS. 19A-19G, * indicates statistically significant compared to Lumizyme® alone (p<0.05, multiple comparison using Dunnett's method under one-way ANOVA analysis).

[9] = Safety and tolerability in patients with Pompe disease; type: in vivo, human; conditions: alone and in combination with miglustat
Experimental: Mean total GAA protein and miglustat PK results from the first 8 Cohort 1 patients through Visit 9 and the first 2 Cohort 3 patients were assessed.

[10] = Cohort 1, 5 mg/kg alone, n = 8, arithmetic mean
[11] = Cohort 1, 10 mg/kg alone, n = 8, arithmetic mean
[12] = Cohort 1, 20 mg/kg alone, n = 8, arithmetic mean
[13] = Cohort 1, ATB200 20 mg/kg + miglustat high MD, n = 8, arithmetic mean
[14] = Cohort 1, ATB200 20 mg/kg + miglustat high SD, n = 7, arithmetic mean
[15] = Cohort 1, ATB200 20 mg/kg + miglustat low MD, n = 8, arithmetic mean
[16] = Cohort 1, ATB200 20 mg/kg + miglustat low SD, n = 8, arithmetic mean
[17] = Cohort 3, ATB200 20 mg/kg + miglustat high MD (first Cohort 3 line), n = 2, arithmetic mean
[18] = Cohort 3, ATB200 20 mg/kg + miglustat high MD (second Cohort 3 line), n = 2, arithmetic mean

Substance: ATB200: recombinant human acid α-glucosidase expressed in CHO cells with increased content of M6P-bearing N-glycans
- relative reduction of glycogen in quadriceps and triceps ([1]; 20 mg/kg IV every other week, 4 injections, FIG. 13): greater reduction of glycogen than Lumizyme®
- tissue glycogen depletion ([1]; 5, 10, 20 mg/kg, two IV bolus administrations every other week): deplete tissue glycogen in acid α-glucosidase (Gaa) knockout mice in a dose-dependent fashion
- reduction of glycogen levels in skeletal muscles ([1]; ATB200 10 and 20 mg/kg vs Lumizyme 20 mg/kg): significantly better reduction of glycogen levels in skeletal muscles than Lumizyme®
- increase of distribution half-life (α-phase) ([2]; ATB200 20 mg/kg with miglustat 260 mg relative to ATB200 alone): 45%
- increase of total GAA protein exposure (AUC) ([2]; ATB200 20 mg/kg with miglustat 260 mg relative to ATB200 alone at 20 mg/kg): approximately 25%
- dose proportionality of plasma total GAA protein ([2]; ATB200 given alone, 5, 10, 20 mg/kg): increases in a slightly greater-than-dose-proportional manner
- Total GAA Protein CLT [2, 10]: 2.1 L/h
- Total GAA Protein VSS [2, 10]: 4.62 L
- Total GAA Protein αt1/2 [2, 10]: 1.1 h
- Total GAA Protein βt1/2 [2, 10]: 1.9 h
- Total GAA Protein AUC0-t ([2]; Cohort 1, 5 mg/kg alone): 215 ng·h/mL
- Total GAA Protein AUC0-∞ ([2]; Cohort 1, 5 mg/kg alone): 218 ng·h/mL
- Total GAA Protein Cmax ([2]; Cohort 1, 5 mg/kg alone): 61 ng/mL
- Total GAA Protein tmax ([2]; Cohort 1, 5 mg/kg alone, n = 8, median): 3.8 h
- Total GAA Protein CLT [2, 11]: 1.59 L/h
- Total GAA Protein VSS [2, 11]: 3.87 L
- Total GAA Protein αt1/2 [2, 11]: 1.3 h
- Total GAA Protein βt1/2 [2, 11]: 1.6 h
- Total GAA Protein AUC0-t ([2]; Cohort 1, 10 mg/kg alone): 578 ng·h/mL
- Total GAA Protein AUC0-∞ ([2]; Cohort 1, 10 mg/kg alone): 584 ng·h/mL
- Total GAA Protein Cmax ([2]; Cohort 1, 10 mg/kg alone): 144 ng/mL
- Total GAA Protein CLT [2, 12]: 1.22 L/h
- Total GAA Protein VSS [2, 12]: 3.52 L
- Total GAA Protein αt1/2 [2, 12]: 1.5 h
- Total GAA Protein βt1/2 [2, 12]: 2.1 h
- Total GAA Protein AUC0-t ([2]; Cohort 1, 20 mg/kg alone): 1508 ng·h/mL
- Total GAA Protein AUC0-∞ ([2]; Cohort 1, 20 mg/kg alone): 1512 ng·h/mL
- Total GAA Protein Cmax ([2]; Cohort 1, 20 mg/kg alone): 345 ng/mL
- Total GAA Protein CLT [2, 13]: 0.98 L/h
- Total GAA Protein αt1/2 [2, 13]: 2.1 h
- Total GAA Protein βt1/2 [2, 13]: 2.5 h
- Total GAA Protein CLT [2, 14]: 0.98 L/h
- Total GAA Protein αt1/2 [2, 14]: 2.3 h
- Total GAA Protein βt1/2 [2, 14]: 2.7 h
- Total GAA Protein CLT [2, 15]: 1.02 L/h
- Total GAA Protein αt1/2 [2, 15]: 1.9 h
- Total GAA Protein βt1/2 [2, 15]: 2.5 h
- Total GAA Protein CLT [2, 16]: 1.09 L/h
- Total GAA Protein αt1/2 [2, 16]: 1.8 h
- Total GAA Protein βt1/2 [2, 16]: 2.4 h
- Total GAA Protein CLT [2, 17]: 0.69 L/h
- Total GAA Protein αt1/2 [2, 17]: 2 h
- Total GAA Protein βt1/2 [2, 17]: 2.4 h
- Total GAA Protein CLT [2, 18]: 0.66 L/h
- Total GAA Protein αt1/2 [2, 18]: 1.9 h
- Total GAA Protein βt1/2 [2, 18]: 2.6 h
- volume of distribution ([2]; in vivo): relatively high volume of distribution
- apparent plasma half-life (t1/2) [3]: ~0.75 h
- Kuptake [4]: 7 to 14 nM
- percent hemolysis ([5]; 300 μg/ml): −0.1%
- percent hemolysis ([5]; 600 μg/ml): −1.5%
- percent hemolysis ([5]; 1000 μg/ml): −1.5%
- OD540 Without Blood ([5]; Concentration 300 μg/mL): 0.001
- OD540 With Blood ([5]; Concentration 300 μg/mL): 0.016
- % Hemolysis ([5]; Concentration 300 μg/mL): −0.10%
- OD540 Without Blood ([5]; Concentration 600 μg/mL): 0.002
- OD540 With Blood ([5]; Concentration 600 μg/mL): 0.003
- % Hemolysis ([5]; Concentration 600 μg/mL): −1.52%
- OD540 Without Blood ([5]; Concentration 1000 μg/mL): 0.003
- OD540 With Blood ([5]; Concentration 1000 μg/mL): 0.004
- % Hemolysis ([5]; Concentration 1000 μg/mL): −1.52%
- Serum Macro (precipitation/coagulation score) ([6]; Final concentration 300 μg/mL): 0
- Serum Micro (precipitation/coagulation score) ([6]; Final concentration 300 μg/mL): 0
- Serum Pellet (score) ([6]; Final concentration 300 μg/mL): 0
- Serum Macro (precipitation/coagulation score) ([6]; Final concentration 600 μg/mL): 0
- Serum Micro (precipitation/coagulation score) ([6]; Final concentration 600 μg/mL): 0
- Serum Pellet (score) ([6]; Final concentration 600 μg/mL): 0
- Serum Macro (precipitation/coagulation score) ([6]; Final concentration 1000 μg/mL): 0
- Serum Micro (precipitation/coagulation score) ([6]; Final concentration 1000 μg/mL): 0
- Serum Pellet (score) ([6]; Final concentration 1000 μg/mL): 0
- pellet after centrifugation ([6]; human serum, 14,000 rpm 10 minutes): no pellets were observed
- precipitation, macroscopic and microscopic ([6]; human serum, each ATB200 concentration, 30 minutes at room temperature): No precipitation was observed macroscopically or microscopically
- Saline Macro (precipitation/coagulation score) ([7]; Final concentration 300 μg/mL): 0
- Saline Micro (precipitation/coagulation score) ([7]; Final concentration 300 μg/mL): 0
- Saline Pellet (score) ([7]; Final concentration 300 μg/mL): 0
- Saline Macro (precipitation/coagulation score) ([7]; Final concentration 600 μg/mL): 0
- Saline Micro (precipitation/coagulation score) ([7]; Final concentration 600 μg/mL): 0
- Saline Pellet (score) ([7]; Final concentration 600 μg/mL): 0
- Saline Macro (precipitation/coagulation score) ([7]; Final concentration 1000 μg/mL): 0
- Saline Micro (precipitation/coagulation score) ([7]; Final concentration 1000 μg/mL): 0
- Saline Pellet (score) ([7]; Final concentration 1000 μg/mL): 0
- intracellular accumulation of dystrophin [8]: lowered intracellular accumulation of dystrophin in Gaa KO mice
- safety and tolerability [9]: safe and well tolerated
